{"source": "patent US20260152569A1", "about": "“ANTI-GPC1 MONOCLONAL ANTIBODY, THERAPEUTIC AND DIAGNOSTIC USES THEREOF” (CENTRO DI RIFERIMENTO ONCOLOGICO DI AVIANO, priority 2022, published 2026)", "key": {"BXPC3 tumor [1]": {"system": "BXPC3 tumor", "experiment": "Therapeutic effect of doxorubicin-loaded chitosan nanobubbles in BXPC3 mouse model", "experimental": "The amount of doxorubicin loaded nanobubbles used for the treatments in each group corresponded to 2 mg/kg per week of doxorubicin for each different treatment modality. Data are represented as mean±SD.\nP-value was calculated using the log-rank test. Colored areas correspond to 95% confidence interval.\nThe survival data from the four treatments were evaluated by Kaplan-Meier curves to compare each treatment with one at time of the others. […] P-value was calculated using the log-rank test. Colored areas correspond to 95% confidence interval.\nThe study started when the subcutaneous BXPC3-tumor reached a volume of 75 mm^3. The humanitarian endpoints that had caused the euthanasia of mice were: one tumor dimension greater than 12 mm or ulceration of the tumor. Four groups of mice were tested: a first group of animals treated with doxo-CS NBs-C (n=6); a second group of animals treated with doxo-CS NBs (n=6); a third group of control animals treated with doxorubicin (doxo 2 mg/kg) in order to treat mice at the same concentration (2 mg/kg for a week) (n=10); a fourth group of control animals treated with PBS solution (n=8).\nMice survival was evaluated using Kaplan-Meier curves and the p-value was calculate using log rank test."}, "GPC1 protein [2]": {"system": "GPC1 protein", "experiment": "Flow cytometry analysis of GPC1 expression in cell lines", "format": "cell-based, human", "conditions": "JURKAT cell line (complete absence of GPC1 protein)", "description": "(§1) Remarkably, the same expression pattern as flow cytometry analysis was obtained by immunofluorescence analysis with anti-GPC1 C. […] Thus, the results of immunofluorescence analysis confirmed the ability of anti-GPC1 C to detect the GPC1 protein that was observed when flow cytometry was performed (FIGS. 1A, 1B). • c) Anti-GPC1 C was also shown to specifically recognize GPC1 protein in GBM tissue samples from surgical resection."}, "GPC1 protein [3]": {"system": "GPC1 protein", "experiment": "Immunofluorescence of GPC1 protein in cell lines", "format": "cell-based, human", "conditions": "JURKAT cells", "description": "as §1"}, "GPC1 protein [4]": {"target": "T1, GPC1 protein (Homo sapiens, UniProt P35052)", "T1 construct": "in tumor masses of xenografts obtained by subcutaneous injection of BXPC3 into athymic nude mice; from tissue; host or cells: BXPC3 xenograft tumour masses from athymic nude mice; organs of the same mice as negative control", "T1 sequence (P35052 24-530 limits assumed)": "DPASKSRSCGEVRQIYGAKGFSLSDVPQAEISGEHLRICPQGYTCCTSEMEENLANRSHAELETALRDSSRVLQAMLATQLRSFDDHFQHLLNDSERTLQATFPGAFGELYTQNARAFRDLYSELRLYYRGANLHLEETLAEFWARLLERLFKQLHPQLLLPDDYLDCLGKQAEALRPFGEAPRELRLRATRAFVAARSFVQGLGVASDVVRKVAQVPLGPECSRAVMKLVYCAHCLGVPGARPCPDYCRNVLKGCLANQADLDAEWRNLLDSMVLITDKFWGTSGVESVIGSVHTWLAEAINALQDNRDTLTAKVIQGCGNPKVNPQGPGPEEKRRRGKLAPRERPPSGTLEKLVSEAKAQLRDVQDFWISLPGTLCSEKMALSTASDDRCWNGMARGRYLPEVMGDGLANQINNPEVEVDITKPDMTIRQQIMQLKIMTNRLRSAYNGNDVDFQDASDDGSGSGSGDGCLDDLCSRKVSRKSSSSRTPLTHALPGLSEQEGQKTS", "experiment": "Immunofluorescence of GPC1 protein in BXPC3 xenograft tumor masses and mouse organs", "parameters": "species or system athymic nude mice", "conditions": "tumor masses of BXPC3 xenografts", "description": "(§2) Scale bar corresponds to 25 μm.\nas §1"}, "GPC1 protein [5]": {"system": "GPC1 protein", "experiment": "Immunofluorescence of GPC1 protein in BXPC3 xenograft tumor masses and mouse organs", "parameters": "species or system athymic nude mice", "conditions": "organs of the xenograft mice", "description": "as §2, §1"}, "BXPC3 tumor mass [6]": {"system": "BXPC3 tumor mass", "experiment": "In vivo and ex vivo biodistribution of Cy5.5-conjugated anti-GPC1 C in BXPC3 xenograft mice", "parameters": "species or system athymic nude mice", "description": "Whole-body scan of a representative mouse in prone and supine position is shown. […] Green circles enclose the tumor mass.\nData are reported as average efficiency mean±SD (n=4). P-value was calculated using the t-test, for the t-test, anti-GPC1 C was used as reference for each time point. ns: ≥0.05; *: 0.05<p≤0.01; **: 0.01<p≤0.001.\nData are reported as mean±SD (n=4). P-value was calculated using the t-test. ns: ≥0.05.\nBlue represents nuclei and green represents IgMs. Scale bar corresponds to 25 μm.\nSpecifically, in vivo time course experiments with signal detection from 0 to 96 hours and signal evaluation every 24 hours were performed to evaluate the ability to target tumor mass and the overall biodistribution of anti-GPC1 C when injected into the mouse tail vein after conjugation with Cy5.5 for detection using the VIVOVISION IVIS®Lumina (Xenogen) in vivo imaging device (FIGS. 5A, B, C, D, E, F, G)."}, "BXPC3 tumor [7]": {"system": "BXPC3 tumor", "experimental": "Experimental endpoint was set up at day 50. Untreated mice (orange line) were used as controls. Data were visualized using Kaplan-Meier analysis, p-value of 0.00016 was calculated using the log rank test.\nData are represented as mean±standard error (SE).\nThe treatment procedure started when the tumor reached a volume of 75 mm^3, and when possible, it was stopped at day 42. For mice reaching the day 42, the final experimental endpoint was set up at day 50 from the beginning of the treatment procedure."}, "GPC1 protein [8]": {"target": "T2, GPC1 protein (Homo sapiens, UniProt P35052)", "T2 sequence (P35052 24-530)": "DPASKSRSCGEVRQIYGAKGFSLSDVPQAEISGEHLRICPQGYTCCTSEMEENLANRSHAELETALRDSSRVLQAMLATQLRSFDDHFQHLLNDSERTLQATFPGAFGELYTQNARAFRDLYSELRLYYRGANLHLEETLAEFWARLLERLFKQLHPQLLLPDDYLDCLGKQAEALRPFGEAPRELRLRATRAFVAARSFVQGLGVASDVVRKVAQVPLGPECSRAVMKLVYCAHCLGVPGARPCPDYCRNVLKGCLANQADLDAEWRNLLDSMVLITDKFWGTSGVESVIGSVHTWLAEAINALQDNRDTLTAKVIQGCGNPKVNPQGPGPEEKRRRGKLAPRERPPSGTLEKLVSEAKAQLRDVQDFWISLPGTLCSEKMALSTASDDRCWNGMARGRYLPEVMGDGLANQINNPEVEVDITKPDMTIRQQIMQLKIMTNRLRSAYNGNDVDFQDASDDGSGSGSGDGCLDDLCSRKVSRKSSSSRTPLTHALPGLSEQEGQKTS", "experiment": "Immunofluorescence of GPC1 protein in cell lines", "format": "cell-based", "parameters": "endogenous in cells; host or cells: BXPC3, U87MG, T98G (GPC1-expressing)", "conditions": "BXPC3, U87MG and T98G cell lines", "description": "as §1"}, "GPC1 protein [9]": {"target": "T2, GPC1 protein", "experiment": "Flow cytometry analysis of GPC1 expression in cell lines", "format": "cell-based", "parameters": "endogenous in cells; host or cells: BXPC3, U87MG, T98G (GPC1-expressing); JURKAT (no GPC1)", "conditions": "GPC1-expressing BXPC3, U87MG and T98G cell lines", "description": "as §1"}, "BXPC3 tumor mass [10]": {"system": "BXPC3 tumor mass", "experiment": "Complement-dependent cytotoxicity in BXPC3 tumor mass (hematoxylin-eosin, immunofluorescence)", "conditions": "compared with murine IgM pool or PBS", "experimental": "The nuclei are stained in purple, the cytoplasm is stained in pink.\nBlue represents nuclei and green represents the signal related to the immunological cell biomarkers (CD14 and CD56, respectively).\nBlue represents nuclei and green represents the signal related to the complement system effectors (C1q, C3, C9, respectively).\nTo better characterize the source of cell death, the presence of complement system effectors, but also the recruitment of macrophages, and NK cells was also analyzed by immunofluorescence analysis (FIGS. 7A, 7B).\nIn particular, the involvement of the complement system was investigated, by analyzing C1q, C3 (C3b, iC3b, C3c), and C9."}, "GPC1 protein [11]": {"target": "T2, GPC1 protein", "experiment": "Immunofluorescence of GPC1 protein in GBM, liver and lung tissue", "parameters": "specifically recognize GPC1 protein in GBM tissue samples from surgical resection; from tissue; host or cells: glioblastoma (GBM) tissue from surgical resection; healthy liver and lung tissue", "description": "Scale bar corresponds to 50 μm.\nas §1"}, "[12]": {"conditions": "i.v., Cy5.5 conjugate, in vivo imaging"}, "[13]": {"conditions": "7 mice, i.p. 38 micrograms twice a week"}}, "note": "“And” between values parts separate entries of the source, which are not always exact repeats. Identical values can stand only once."}
{"molecule": "COc1cccc2c1C(=O)c1c(O)c3c(c(O)c1C2=O)C[C@@](O)(C(=O)CO)C[C@@H]3O[C@H]1C[C@H](N)[C@H](O)[C@H](C)O1", "note": "[Doxo, doxorubicin]", "values": [{"measurement": "Mean survival ± S.D.", "setting": "BXPC3 tumor [1]; 2 mg/kg doxorubicin per week", "value": "13.9 ± 1.59", "unit": "days"}, {"measurement": "HR", "setting": "BXPC3 tumor [1]; reference treatment: Untreated", "value": 0.19}]}
{"molecule": "anti-GPC1 C: anti-GPC1 IgM monoclonal antibody of the invention, heavy chain variable region SEQ ID NO: 13, light chain variable region SEQ ID NO: 14 (antibody, listed as Mus musculus, V domains shown, IgM constant regions) VH: QVQLQQSDAELVKPGASVKISCKASGYTFTDHAIHWVKQKPEQGLEWIGYISPGNGDIKYNEKFKGKATLTADKSSSTAYMQLNSLTSEDSAVYFCKRYAYWGQGTLVTVSA VL: DVLMTQTPLSLPVSLGDQASISCRSSQSIVHSNGNTYLEWYLQKPGQSPKLLIYKVSNRFSGVPDRFSGSGSGTDFTLKISRVEAEDLGVYYCFQGSHVPWTFGGGTKLEIKP", "values": [{"measurement": "GPC1 protein signal by flow cytometry", "setting": "GPC1 protein [2]", "value": "no signals corresponding to the presence of the GPC1 protein"}, {"measurement": "GPC1 protein signal by immunofluorescence", "setting": "GPC1 protein [3]", "value": "no signal was observed"}, {"measurement": "GPC1 protein recognition by immunofluorescence", "setting": "GPC1 protein [4]", "value": "specifically recognize the GPC1 protein"}, {"measurement": "GPC1 protein signal by immunofluorescence", "setting": "GPC1 protein [5]", "value": "no signals were obtained"}, {"measurement": "ex vivo accumulation in the tumor mass compared to the IgM pool", "setting": "BXPC3 tumor mass [6]; 96 hours after administration, IVIS Lumina", "value": "higher accumulation"}, {"measurement": "ex vivo immunofluorescence detection in the BXPC3 tumor mass", "setting": "BXPC3 tumor mass [6]; 96 hours after injection", "value": "still detected"}, {"measurement": "time remaining in the tumor", "setting": "BXPC3 tumor mass [6]; ex vivo immunofluorescence", "value": "at least 96 hours"}, {"measurement": "peak of accumulation on the tumor mass", "setting": "BXPC3 tumor mass [6]; i.v., Cy5.5 conjugate, BXPC3 xenograft, imaging every 24 h from 0 to 96 h", "value": 72, "unit": "h"}, {"measurement": "signal in the kidneys and liver", "setting": "BXPC3 tumor mass [6]; [12]", "value": "A clear signal"}, {"measurement": "tumor mass signal at 96 hours", "setting": "BXPC3 tumor mass [6]; [12]", "value": "maintained up to 96 hours"}, {"measurement": "% survival at day 50", "setting": "BXPC3 tumor [7]; [13]", "value": 57.1, "unit": "%"}, {"measurement": "Mean day of euthanasia/sacrifice", "setting": "BXPC3 tumor [7]; [13]", "value": 42.7}, {"measurement": "Day of end point", "setting": "BXPC3 tumor [7]; individual mouse, i.p. 38 micrograms twice a week until day 42, experimental endpoint day 50", "value": "28 and 29 and 42 and 50 (4×)"}, {"measurement": "complete remission of the tumor mass", "setting": "BXPC3 tumor [7]; observed in one animal", "value": "complete remission"}, {"measurement": "survival time intervals versus PBS-treated mice", "setting": "BXPC3 tumor [7]; p=0.00016, log-rank test", "value": "significantly longer"}, {"measurement": "toxicity (weight loss, diarrhea, vomiting, convulsions, dehydration, tachypnea, dyspnea, motionless)", "setting": "BXPC3 tumor [7]; treated group", "value": "no evidence of toxicity"}, {"measurement": "GPC1 protein signal by immunofluorescence", "setting": "GPC1 protein [8]", "value": "a signal corresponding to the GPC1 protein was observed"}, {"measurement": "GPC1 protein recognition by flow cytometry", "setting": "GPC1 protein [9]", "value": "specifically recognize the GPC1 protein"}, {"measurement": "tumor cell death by hematoxylin-eosin staining", "setting": "BXPC3 tumor mass [10]; 96 hours", "value": "clear indicator of cell death"}, {"measurement": "complement system deposition (C1q, C3, C9), macrophage and NK cell recruitment in tumors", "setting": "BXPC3 tumor mass [10]; immunofluorescence", "value": "high degree of complement system deposition (C1q, C3, C9), macrophage and NK cell recruitment"}, {"measurement": "GPC1 protein signal by immunofluorescence", "setting": "GPC1 protein [11]; GBM tissue samples from surgical resection", "value": "a specific signal was observed"}, {"measurement": "GPC1 protein signal by immunofluorescence", "setting": "GPC1 protein [11]; healthy tissues (liver and lung)", "value": "no signal corresponding to GPC1 protein was detected"}]}
